Test results: patent US8008452B2, “Phosphorylated Ndr kinase” (Novartis Forschungesstiftung, Zweigniederlassung Friedrich …, priority 2002, dated 2011)

Assays:
GST-NDR1 [1] = biological target: T1, GST-NDR1 (Homo sapiens, UniProt Q15208); assay: GST-NDR1 kinase assay (peptide kinase assay); type: biochemical
T1 construct: made in house; host or cells: E. coli BL21-DE3-pRep4
Protocol: 1 microgram of purified recombinant GST-NDR1 wild type and mutants (without further treatment or autophosphorylated for 2 h in the presence or absence of 1 mM CaCl2 and […] (Sigma)) were assayed in 20 microliter of reaction mixture containing 20 mM Tris-HCl pH 7.5, 10 mM MgCl2, 1 mM DTT, 100 microM [gamma-^32P]ATP (˜0.5 microCi/microliter), and 1 mM NDR1 substrate peptide ([…]; SEQ ID NO:22). After 30 mins incubation at 30° C., reactions were stopped with 50 mM EDTA, and 10 microliters of reaction mixture were spotted onto 2 cm^2 squares of P81 phosphocellulose paper (Whatman). These were subsequently washed for 4×5 min and 3×20 min in 1% phosphoric acid and once in acetone before counting in a liquid scintillation counter. One unit of NDR1 activity was defined as the amount which catalyses the phosphorylation of 1 nmol peptide substrate in 1 min.
Specific activity of GST-NDR1 mutants was also measured by a peptide kinase assay as described above. For this purpose, 1 microgram of purified GST-NDR1 wild type and alanine mutants were left without further treatment or autophosphorylated for 2 h in the presence or absence of 1 mM CaCl2 and […].
Target sequence in this assay (Q15208 whole entry): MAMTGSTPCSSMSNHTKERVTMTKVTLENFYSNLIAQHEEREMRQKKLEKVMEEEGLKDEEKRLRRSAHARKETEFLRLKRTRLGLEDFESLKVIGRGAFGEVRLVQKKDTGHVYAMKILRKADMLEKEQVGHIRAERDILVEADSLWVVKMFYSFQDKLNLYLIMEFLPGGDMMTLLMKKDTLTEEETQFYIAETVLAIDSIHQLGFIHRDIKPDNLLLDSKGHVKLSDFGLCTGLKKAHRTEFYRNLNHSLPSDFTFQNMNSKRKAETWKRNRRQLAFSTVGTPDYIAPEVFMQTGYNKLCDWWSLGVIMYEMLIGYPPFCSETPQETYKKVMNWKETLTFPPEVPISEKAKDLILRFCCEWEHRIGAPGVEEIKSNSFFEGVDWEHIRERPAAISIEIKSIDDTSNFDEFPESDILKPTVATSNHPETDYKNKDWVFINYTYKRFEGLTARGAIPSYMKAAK

GST-NDR1 [2] = biological target: T1, GST-NDR1; assay: GST-NDR1 in vitro autophosphorylation, incorporated 32P by Cerenkov counting; type: biochemical; conditions: on both Ser281 and Thr444
Protocol: BL21-DE3-pRep4 E. coli strain was transformed with the pGEX-2T_NDR1 wild type or mutant plasmids. BL21-DE3 is a protease-deficient E. coli strain and pRep4 is a Laclq repressor-bearing plasmid both available commercially. Optionally, if desired, an E. coli strain comprising GroESL can be used, which expresses a chaperone protein that stabilizes the kinase. Mid-logarithmic phase cells were induced with 0.5 mM isopropyl beta-D-thiogalactopyranoside (IPTG) for 4 hours at 30° C. Bacteria were lysed using a French press in the presence of 1 mg/ml lysosyme, and the fusion proteins were purified on glutathione-agarose (Amersham Pharmacia Biotech) as described by the manufacturers. Recombinant proteins were assayed for kinase activity as described below and autophosphorylation was determined after SDS-PAGE separation either by Cerenkov counting or by exposure to a PhosphorImager screen followed by analysis with ImageQuant software (Molecular Dynamics).
In brief, 1 microgram of purified GST-NDR1 (in solution ˜0.5 microM) wild type, kinase dead (K118A), and alanine mutants of phosphorylation residues Thr74, Ser281, and Thr444 were autophosphorylated for 2 hours in vitro without further additions or in the presence of 1 mM CaCl2 and 10 microM bovine S100B. Proteins were visualized on SDS gels using Coomassie Blue R-350 stained SDS-PAGE gel, and [gamma-^32P]ATP-labelled proteins were visualized by autoradiography of the gels developed on a Phosphorimager screen. The amount of incorporated ^32P was quantified by Cerenkov counting.
Target sequence in this assay (Q15208 2-465): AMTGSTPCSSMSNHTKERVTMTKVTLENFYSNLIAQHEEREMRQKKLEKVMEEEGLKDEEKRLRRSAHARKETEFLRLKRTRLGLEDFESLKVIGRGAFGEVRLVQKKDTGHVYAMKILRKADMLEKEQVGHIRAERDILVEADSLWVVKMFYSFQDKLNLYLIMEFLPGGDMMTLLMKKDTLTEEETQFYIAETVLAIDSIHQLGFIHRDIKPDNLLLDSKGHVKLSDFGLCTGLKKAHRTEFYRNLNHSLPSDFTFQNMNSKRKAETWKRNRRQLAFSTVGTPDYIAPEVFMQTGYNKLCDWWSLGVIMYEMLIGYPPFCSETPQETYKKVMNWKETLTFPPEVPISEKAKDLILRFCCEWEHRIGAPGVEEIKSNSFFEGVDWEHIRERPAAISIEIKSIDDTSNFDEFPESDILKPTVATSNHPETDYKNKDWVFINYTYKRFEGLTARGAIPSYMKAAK

GST-NDR1 [3] = assay: Immunodetection of GST-NDR1 phosphorylated on Ser281 or Thr444 after in vitro autophosphorylation; type: biochemical, human; conditions: in vitro autophosphorylation with or without Ca2+/S100B
Protocol: Either 1 microgram GST-NDR1 or HA-NDR1 immunoprecipitated from 100 microgram COS-1 detergent extracts as described above was separated on 10% SDS-PAGE and immunoblotted 2 h at RT or overnight at 4° C. with anti-Ser281P antisera (1:1000) in the presence of 50 microg/ml competing unphosphopeptide or anti-Thr444P purified antibody (1:500). Both antibodies were detected with horseradish peroxidase-conjugated donkey anti-rabbit Ig antibody (Amersham biosciences) and developed by ECL (chemiluminescence; Amersham Pharmacia Biotech).
To reliably quantify the effect of S100B on NDR1 phosphorylation status, rabbit polyclonal antibodies were raised against phosphoepitopes comprising Ser281 or Thr444. GST-NDR1 mutants were treated essentially as described in Example 2 and detected either with anti-NDR1_C-term antiserum or polyclonal antibodies recognising NDR1 phosphorylated on Ser281 or Thr444.

NDR2 [4] = biological target: T2, NDR2 (Homo sapiens, UniProt Q9Y2H1); assay: NDR2 specific kinase activity in vitro with Ca2+/S100B; type: biochemical; conditions: concentration dependent
T2 construct: made in house; host or cells: E. coli (inferred from b139 and b74)
T2 sequence (Q9Y2H1 whole entry, one chain of several): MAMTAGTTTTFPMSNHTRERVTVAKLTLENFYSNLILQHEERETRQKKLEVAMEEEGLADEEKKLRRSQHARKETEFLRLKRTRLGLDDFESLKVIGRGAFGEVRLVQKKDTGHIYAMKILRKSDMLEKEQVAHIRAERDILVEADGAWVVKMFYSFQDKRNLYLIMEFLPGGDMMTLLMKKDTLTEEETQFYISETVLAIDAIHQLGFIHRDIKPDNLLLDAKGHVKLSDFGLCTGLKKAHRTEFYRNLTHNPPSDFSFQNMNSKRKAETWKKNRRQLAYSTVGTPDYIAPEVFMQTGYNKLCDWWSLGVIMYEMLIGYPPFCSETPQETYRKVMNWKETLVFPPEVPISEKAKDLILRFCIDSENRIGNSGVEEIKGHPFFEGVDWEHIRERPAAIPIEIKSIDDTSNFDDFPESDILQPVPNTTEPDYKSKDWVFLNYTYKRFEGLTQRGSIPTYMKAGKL
Protocol: (§1) All other procedures (including bacterial expression, kinase assays, immunodetection and mass spectrometry) were carried out essentially as described in the Methodology section above.
(§2) The sequence conservation between NDR1 and NDR2 also encompasses the previously defined S100 binding domain of NDR1. Therefore, the in vitro effect of Ca2+/S100B on NDR2 activity was measured in a time and concentration dependent manner. Ca2+/S100B increases the rate of NDR2 autophosphorylation by ˜2-fold after 4 hours of incubation, as measured by mass spectrometry anlaysis, and it stimulates the specific NDR activity in a concentration dependent manner up to ˜4-fold. […] After in vitro incubation of GST-NDR2 in the presence and absence of Ca2+/S100B, the proteins were digested with trypsin, and the resultant mixture was analysed by ESI-MS-MS in a −79 precursor scan, measuring the mass charge ratio (m/z) of all peptide species that liberate a single phosphate group after fragmentation. The identity of 5 NDR2 derived phosphopeptides could be determined in both samples, the GST-NDR2 and the GST-NDR2/Ca2+/S100B.

NDR2 [5] = biological target: T2, NDR2; assay: GST-NDR2 in vitro autophosphorylation with Ca2+/S100B; type: biochemical; conditions: after 4 hours of incubation
Protocol: as §1, §2

HA-NDR1 = HA-NDR1 kinase assay on 12CA5 immunoprecipitates from transfected, treated COS-1 cells; type: cell-based, human; conditions: COS1 cells cotransfected with HA-NDR1, treated with OA; versus empty vector
Protocol: In some experiments, the cells were treated for 60 min with 1 microM okadaic acid in 0.1% N,N-dimethylformamide (DMF) (Alexis Corp.), 50 microM BAPTA-AM (1,2-bis (o-aminophenoxy) ethane-N,N,N′,N′-tetraacetic acid tetra (acetoxy-methyl)ester) in 0.1% diimethylsulfoxide (DMSO; Sigma), or 20 microM thapsigargin in 0.1% DMSO (Alomone) 24 hours after transfection.
Transfected and treated COS-1 cells were washed once with ice-cold PBS, and harvested by rubber policeman in 1 ml ice-cold PBS containing 1 mM Na3VO4 and 20 mM beta-glycerophosphate before lysis in 500 microliters of IP buffer (20 mM Tris-HCl pH 8.0, 150 mM NaCl, 1% Nonidet P-40, 10% glycerol, 1 mM Na3VO4, 20 mM beta-glycerolphosphate, 1 microM microcystin-LR, 50 mM NaF, 0.5 mM PMSF, 4 microM leupeptin, 1 mM benzamidine, and 1 tablet/10 ml IP of Complete protease inhibitors (Roche)). Lysates were centrifuged at 20 000 g for 20 min and triplicate aliquots (200 microg) of supernatant were precleared with protein A-Sepharose (Amersham Pharmacia Biotech) for 60 min and mixed subsequently for 3 h at 4° C. with 12CA5 antibody prebound to protein A-Sepharose (˜1 microg antibody bound to 2 microl beads). The beads were then washed twice with IP buffer, once for 10 min with IP buffer containing 1 M NaCl, once again for 10 min with IP buffer, and finally twice with 20 mM Tris-HCl pH 7.5 containing 4 microM leupeptin and 1 mM benzamidine. […] After 60 min incubation at 30° C., 15 microliters of supernatant were removed, and phosphate incorporation into the substrate peptide determined as described for GST-NDR1 above. […]
To test whether hMOB1 plays a role in NDR activation, myc-hMOB1 or the empty vector was cotransfected with HA-NDR1 in COS1 cells and treated with OA. […] The reactions were resolved on a 10% SDS PAGE and the radioactivity visualised by using a phosphoimager.

HA-NDR = biological target: T3, HA-NDR (Homo sapiens, UniProt Q15208); assay: Autophosphorylation of immunoprecipitated HA-NDR with added GST-MOB or GST; type: biochemical; conditions: added to HA-NDR kinase reactions; GST as control
T3 construct: expressed in transfected cells; host or cells: COS-1 (HA-NDR1)
T3 sequence (Q15208 whole entry, one chain of several): as the sequence (Q15208 whole entry) above
Protocol: To test whether hMOB1 plays a role in NDR activation, myc-hMOB1 or the empty vector was cotransfected with HA-NDR1 in COS1 cells and treated with OA. 12CA5 immunoprecipitates were then assayed using the peptide kinase assay for HA-NDR kinase activity. […] GST-MOB and GST respectively was added to immunoprecipitated HA-NDR and kinase reaction were performed. The reactions were resolved on a 10% SDS PAGE and the radioactivity visualised by using a phosphoimager.

B1: S100B: bovine S100B, EF-hand Ca2+-binding protein, added with 1 mM CaCl2 (protein)
chain: SELEKAVVALIDVFHQYSGREGDKHKLKKSELKELINNELSHFLEEIKEQEVVDKVMETLDSDGDGECDFQEFMAFVAMITTACHEFFEHE
increase in kinase activity of wild-type GST-NDR1 on addition of S100B (GST-NDR1 [1]): ~5 fold
increase in autophosphorylation of wild-type GST-NDR1 on addition of S100B (GST-NDR1 [2]): ~2 fold
phosphorylation of GST-NDR1 on Ser281 and Thr444 (phosphospecific antibodies) (GST-NDR1 [3]): enhance phosphorylation on both Ser281 and Thr444
stimulation of specific NDR activity (NDR2) (NDR2 [4]): ~4 fold
increase of the rate of NDR2 autophosphorylation (NDR2 [5]): ~2 fold

B2: hMOB1: human MOB1 (GI: 11691898, SEQ ID NO:5), myc-tagged, cotransfected with HA-NDR1 (protein)
chain: MSFLFSSRSSKTFKPKKNIPEGSHQYELLKHAEATLGSGNLRQAVMLPEGEDLNEWIAVNTVDFFNQINMLYGTITEFCTEASCPVMSAGPRYEYHWADGTNIKKPIKCSAPKYIDYLMTWVQDQLDDETLFPSKIGVPFPKNFMSVAKTILKRLFRVYAHIYHQHFDSVMQLQEEAHLNTSFKHFIFFVQEFNLIDRRELAPLQELIEKLGSKDR
modifications: left off: small tags and cut ends
stimulation of OA stimulated NDR kinase activity by cotransfected myc-hMOB1 (HA-NDR1): two to threefold stimulation

B3: GST-hMOB1: GST fusion of hMOB1 added to HA-NDR kinase reactions (protein)
chain: MSFLFSSRSSKTFKPKKNIPEGSHQYELLKHAEATLGSGNLRQAVMLPEGEDLNEWIAVNTVDFFNQINMLYGTITEFCTEASCPVMSAGPRYEYHWADGTNIKKPIKCSAPKYIDYLMTWVQDQLDDETLFPSKIGVPFPKNFMSVAKTILKRLFRVYAHIYHQHFDSVMQLQEEAHLNTSFKHFIFFVQEFNLIDRRELAPLQELIEKLGSKDR
modifications: left off: a dimerising Fc or GST
notes: GST fusion of hMOB1 added to HA-NDR kinase reactions
effect on NDR autophosphorylation activity (HA-NDR): stimulated NDR autophosphorylation activity
